This note sets out measurements from US20220411483A1 (Chugai, published 2022).

Test [1] has as its target T1, FcgRIIaR (human, UniProt P12318 34-217).
T1 construct: extracellular domain; also called FcγRIIa R type; FcγRIIa (R type)
T1 sequence (looked up): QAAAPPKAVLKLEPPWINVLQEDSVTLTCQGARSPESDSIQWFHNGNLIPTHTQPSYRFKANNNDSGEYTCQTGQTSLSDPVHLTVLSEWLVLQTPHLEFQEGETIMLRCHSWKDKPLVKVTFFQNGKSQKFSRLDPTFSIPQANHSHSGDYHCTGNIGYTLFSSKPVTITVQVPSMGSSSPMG
As to the kind of experiment: SPR, amount bound per captured antibody. For orientation: In SPR one partner is held on a chip, and binding of the other changes the refractive index at the surface.

Test [2] addresses T2, FcgRIIb (human, UniProt P31994 43-217).
T2 construct: extracellular domain; also called FcγRIIb
T2 sequence (looked up): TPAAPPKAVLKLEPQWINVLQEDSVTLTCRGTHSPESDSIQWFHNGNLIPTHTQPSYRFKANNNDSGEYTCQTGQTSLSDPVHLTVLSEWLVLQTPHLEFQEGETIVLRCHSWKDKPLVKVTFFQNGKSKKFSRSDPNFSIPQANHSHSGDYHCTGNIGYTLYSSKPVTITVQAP
In words: SPR, amount bound per captured antibody.

Test [3] concerns the target T3, human complement C1q (human, UniProt P02745 23-245; P02746 28-253; P02747 29-245).
T3 construct: Bought (PROSPEC or Calbiochem); also called human C1q
As to the kind of experiment: SPR, C1q bound per antibody captured on Protein L. As to the method:
The interaction between an antibody and human C1q was analyzed using Biacore T200 (GE Healthcare). HBS-EP+ (GE Healthcare) was used as the running buffer, and the measurement temperature was set at 25° C. Chips produced by immobilizing Protein L (ACTIGEN or BioVision) onto Series S sensor Chip CM4 (GE Healthcare) by amine coupling were used.
The antibodies of interest were captured onto these sensor chips, and allowed to interact with human complement C1q (PROSPEC or Calbiochem) diluted in the running buffer. The amount of antibody binding was determined, and comparisons were made among the antibodies. However, since the amount of C1q bound depends on the amount of captured antibodies, corrected values obtained by dividing the amount of C1q bound by the amount of each antibody captured were compared. Furthermore, by reaction with 10 mM glycine-HCl, pH 1.5, the antibodies captured onto the sensor chips were washed, and the sensor chips were recycled and reused.

T3 sequence (P02745 23-245 limits assumed, chain 1 of 3): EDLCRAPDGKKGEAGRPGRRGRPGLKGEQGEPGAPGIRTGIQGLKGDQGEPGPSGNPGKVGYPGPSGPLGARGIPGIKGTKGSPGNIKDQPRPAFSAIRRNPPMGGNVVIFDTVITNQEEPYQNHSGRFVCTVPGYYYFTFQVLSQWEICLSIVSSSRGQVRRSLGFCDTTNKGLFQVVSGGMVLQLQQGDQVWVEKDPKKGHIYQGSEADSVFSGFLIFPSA
T3 sequence (P02746 28-253 limits assumed, chain 2 of 3): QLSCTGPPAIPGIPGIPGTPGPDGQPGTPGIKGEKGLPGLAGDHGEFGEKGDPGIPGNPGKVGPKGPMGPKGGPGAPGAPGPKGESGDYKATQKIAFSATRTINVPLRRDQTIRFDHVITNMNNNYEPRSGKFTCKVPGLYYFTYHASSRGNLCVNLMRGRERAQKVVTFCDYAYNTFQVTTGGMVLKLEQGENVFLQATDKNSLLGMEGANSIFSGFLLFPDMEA
T3 sequence (P02747 29-245 limits assumed, chain 3 of 3): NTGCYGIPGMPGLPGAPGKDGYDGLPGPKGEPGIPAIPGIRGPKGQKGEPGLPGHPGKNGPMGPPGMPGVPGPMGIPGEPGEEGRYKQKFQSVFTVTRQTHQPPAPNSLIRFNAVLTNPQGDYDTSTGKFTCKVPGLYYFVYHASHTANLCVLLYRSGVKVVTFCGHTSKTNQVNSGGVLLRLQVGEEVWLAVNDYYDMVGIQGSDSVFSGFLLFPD

B1: IL6R-P559/IL6R-L (antibody, human IgG1, kappa)
heavy: QVQLQESGPGLVKPSETLSLTCAVSGHSISHDHAWSWVRQPPGEGLEWIGFISYSGITNYNPSLQGRVTISRDNSKNTLYLQMNSLRAEDTAVYYCARSLARTTAMDYWGEGTLVTVSSASTKGPSVFPLAPSSKSTSGGTAALGCLVKDYFPEPVTVSWNSGALTSGVHTFPAVLQSSGLYSLSSVVTVPSSSLGTQTYICNVNHKPSNTKVDKKVEPKSCDKTHTCPPCPAPELLGDDSVFLFPPKPKDTLMISRTPEVTCVVVDVSEEDGEVKFNWYVDGVEVHNAKTKPREEQYNSTYRVVSVLTVLHQDWLNGKEYKCKVSNKALPAPIEKTISKAKGQPREPQVYTLPPSRDELTKNQVSLTCLVKGFYPSDIAVEWESNGQPENNYKTTPPVLDSDGSFFLYSKLTVDKSRWQQGNVFSCSVMHEALHNHYTQKSLSLSP
light: not shown
For the molecule B1, in test [1], the “Relative FcgRIIaR-binding Activity” value is 89.4 IL6R-G1d/IL6R-L=100. Besides, in test [2], the “Relative FcgRIIb-binding Activity” value came to 319 IL6R-G1d/IL6R-L=100. Moreover, the “Amount of C1q-binding when that for G1d is Defined as 100” value (“Amount of C1q-binding when that” for short) in test [3] is 34.1 G1d=100.

B2: IL6R-P691/IL6R-L (antibody, human IgG1, kappa)
heavy: QVQLQESGPGLVKPSETLSLTCAVSGHSISHDHAWSWVRQPPGEGLEWIGFISYSGITNYNPSLQGRVTISRDNSKNTLYLQMNSLRAEDTAVYYCARSLARTTAMDYWGEGTLVTVSSASTKGPSVFPLAPSSKSTSGGTAALGCLVKDYFPEPVTVSWNSGALTSGVHTFPAVLQSSGLYSLSSVVTVPSSSLGTQTYICNVNHKPSNTKVDKKVEPKSCDKTHTCPPCPAPELFGQDSVMLFPPKPKDTLMISRTPEVTCVVVDVSHEDPEVKFNWYVDGVEVHNAKTKPREEQENSTYRVVSVLTVLHQDWLNGKEYKCKVSNKALPAPIEKTISKAKGQPREPQVYTLPPSRDELTKNQVSLTCLVKGFYPSDIAVEWESNGQPENNYKTTPPVLDSDGSFFLYSKLTVDKSRWQQGNVFSCSVMHEALHNHYTQKSLSLSP
light: not shown
Regarding B2, the “Relative FcgRIIaR-binding Activity” value in test [1] is 10.8 IL6R-G1d/IL6R-L=100. Further, the “Relative FcgRIIb-binding Activity” value in test [2] is 119 IL6R-G1d/IL6R-L=100. For the same molecule, the “Amount of C1q-binding when that” value in test [3] was 21 G1d=100.

B3: IL6R-P737/IL6R-L (antibody, human IgG1, kappa)
heavy: QVQLQESGPGLVKPSETLSLTCAVSGHSISHDHAWSWVRQPPGEGLEWIGFISYSGITNYNPSLQGRVTISRDNSKNTLYLQMNSLRAEDTAVYYCARSLARTTAMDYWGEGTLVTVSSASTKGPSVFPLAPSSKSTSGGTAALGCLVKDYFPEPVTVSWNSGALTSGVHTFPAVLQSSGLYSLSSVVTVPSSSLGTQTYICNVNHKPSNTKVDKKVEPKSCDKTHTCPPCPAPELLGQDSVMLFPPKPKDTLMISRTPEVTCVVVDVSPEDPEVKFNWYVDGVEVHNAKTKPREEQENSTYRVVSVLTVLHQDWLNGKEYKCKVHNKALPHPIEKTISKAKGQPREPQVYTLPPSRDELTKNQVSLTCLVKGFYPSDIAVEWESNGQPENNYKTTPPVLDSDGSFFLYSKLTVDKSRWQQGNVFSCSVMHEALHNHYTQKSLSLSP
light: not shown
In the case of B3, the “Relative FcgRIIaR-binding Activity” value in test [1] is 8 IL6R-G1d/IL6R-L=100. The “Relative FcgRIIb-binding Activity” value in test [2] was 78.7 IL6R-G1d/IL6R-L=100. Moreover, the “Amount of C1q-binding when that” value in test [3] was 45.7 G1d=100.

B4: IL6R-P587/IL6R-L (antibody, human IgG1, kappa)
heavy: QVQLQESGPGLVKPSETLSLTCAVSGHSISHDHAWSWVRQPPGEGLEWIGFISYSGITNYNPSLQGRVTISRDNSKNTLYLQMNSLRAEDTAVYYCARSLARTTAMDYWGEGTLVTVSSASTKGPSVFPLAPSSKSTSGGTAALGCLVKDYFPEPVTVSWNSGALTSGVHTFPAVLQSSGLYSLSSVVTVPSSSLGTQTYICNVNHKPSNTKVDKKVEPKSCDKTHTCPPCPAPDLLGGDSVFLFPPKPKDTLMISRTPEVTCVVIDVAEEDGEVKFNWYVDGVEVHNAKTKPREEQYNSTYRVVSVLTVLHQDWLNGKEYKCKVSNKALPAPIEKTISKAKGQPREPQVYTLPPSRDELTKNQVSLTCLVKGFYPSDIAVEWESNGQPENNYKTTPPVLDSDGSFFLYSKLTVDKSRWQQGNVFSCSVMHEALHNHYTQKSLSLSP
light: not shown
Regarding B4, the “Relative FcgRIIaR-binding Activity” value in test [1] is 106 IL6R-G1d/IL6R-L=100. Besides, the “Relative FcgRIIb-binding Activity” value in test [2] stood at 350 IL6R-G1d/IL6R-L=100. In addition, in test [3], the “Amount of C1q-binding when that” value stood at 132 G1d=100.

B5: IL6R-P727/IL6R-L (antibody, human IgG1, kappa)
heavy: QVQLQESGPGLVKPSETLSLTCAVSGHSISHDHAWSWVRQPPGEGLEWIGFISYSGITNYNPSLQGRVTISRDNSKNTLYLQMNSLRAEDTAVYYCARSLARTTAMDYWGEGTLVTVSSASTKGPSVFPLAPSSKSTSGGTAALGCLVKDYFPEPVTVSWNSGALTSGVHTFPAVLQSSGLYSLSSVVTVPSSSLGTQTYICNVNHKPSNTKVDKKVEPKSCDKTHTCPPCPAPELLGQDSVMLFPPKPKDTLMISRTPEVTCVVVDVSPEDPEVKFNWYVDGVEVHNAKTKPREEQENSTYRVVSVLTVLHQDWLNGKEYKCKVSNKALPHPIEKTISKAKGQPREPQVYTLPPSRDELTKNQVSLTCLVKGFYPSDIAVEWESNGQPENNYKTTPPVLDSDGSFFLYSKLTVDKSRWQQGNVFSCSVMHEALHNHYTQKSLSLSP
light: not shown
Regarding B5, the “Relative FcgRIIaR-binding Activity” value in test [1] amounted to 9.7 IL6R-G1d/IL6R-L=100. Further, the “Relative FcgRIIb-binding Activity” value in test [2] was found to be 93 IL6R-G1d/IL6R-L=100. Further, the “Amount of C1q-binding when that” value in test [3] stood at 35.5 G1d=100.

B6: IL6R-P588/IL6R-L (antibody, human IgG1, kappa)
heavy: QVQLQESGPGLVKPSETLSLTCAVSGHSISHDHAWSWVRQPPGEGLEWIGFISYSGITNYNPSLQGRVTISRDNSKNTLYLQMNSLRAEDTAVYYCARSLARTTAMDYWGEGTLVTVSSASTKGPSVFPLAPSSKSTSGGTAALGCLVKDYFPEPVTVSWNSGALTSGVHTFPAVLQSSGLYSLSSVVTVPSSSLGTQTYICNVNHKPSNTKVDKKVEPKSCDKTHTCPPCPAPELLGGDSVFLFPPKPKDTLMISRTPEVTCVVIDVAEEDGEVKFNWYVDGVEVHNAKTKPREEQYNSTYRVVSVLTVLHQDWLNGKEYKCKVSNKALPAPIEKTISKAKGQPREPQVYTLPPSRDELTKNQVSLTCLVKGFYPSDIAVEWESNGQPENNYKTTPPVLDSDGSFFLYSKLTVDKSRWQQGNVFSCSVMHEALHNHYTQKSLSLSP
light: not shown
Consider B6, for which the “Relative FcgRIIaR-binding Activity” value in test [1] was determined as 100 IL6R-G1d/IL6R-L=100. Also, the “Relative FcgRIIb-binding Activity” value in test [2] came out at 346 IL6R-G1d/IL6R-L=100. The “Amount of C1q-binding when that” value in test [3] amounted to 108 G1d=100.

B7: IL6R-P729/IL6R-L (antibody, human IgG1, kappa)
heavy: QVQLQESGPGLVKPSETLSLTCAVSGHSISHDHAWSWVRQPPGEGLEWIGFISYSGITNYNPSLQGRVTISRDNSKNTLYLQMNSLRAEDTAVYYCARSLARTTAMDYWGEGTLVTVSSASTKGPSVFPLAPSSKSTSGGTAALGCLVKDYFPEPVTVSWNSGALTSGVHTFPAVLQSSGLYSLSSVVTVPSSSLGTQTYICNVNHKPSNTKVDKKVEPKSCDKTHTCPPCPAPELFGQDSVMLFPPKPKDTLMISRTPEVTCVVVDVSPEDPEVKFNWYVDGVEVHNAKTKPREEQENSTYRVVSVLTVLHQDWLNGKEYKCKVSNKALPAPIEKTISKAKGQPREPQVYTLPPSRDELTKNQVSLTCLVKGFYPSDIAVEWESNGQPENNYKTTPPVLDSDGSFFLYSKLTVDKSRWQQGNVFSCSVMHEALHNHYTQKSLSLSP
light: not shown
Regarding B7, the “Relative FcgRIIaR-binding Activity” value in test [1] came to 9 IL6R-G1d/IL6R-L=100. The “Relative FcgRIIb-binding Activity” value in test [2] turned out to be 100 IL6R-G1d/IL6R-L=100. Further, the “Amount of C1q-binding when that” value in test [3] is 22.8 G1d=100.

B8: IL6R-P562/IL6R-L (antibody, human IgG1, kappa)
heavy: QVQLQESGPGLVKPSETLSLTCAVSGHSISHDHAWSWVRQPPGEGLEWIGFISYSGITNYNPSLQGRVTISRDNSKNTLYLQMNSLRAEDTAVYYCARSLARTTAMDYWGEGTLVTVSSASTKGPSVFPLAPSSKSTSGGTAALGCLVKDYFPEPVTVSWNSGALTSGVHTFPAVLQSSGLYSLSSVVTVPSSSLGTQTYICNVNHKPSNTKVDKKVEPKSCDKTHTCPPCPAPDLLGDDSVFLFPPKPKDTLMISRTPEVTCVVVDVSEEDGEVKFNWYVDGVEVHNAKTKPREEQYNSTYRVVSVLTVLHQDWLNGKEYKCKVSNKALPAPIEKTISKAKGQPREPQVYTLPPSRDELTKNQVSLTCLVKGFYPSDIAVEWESNGQPENNYKTTPPVLDSDGSFFLYSKLTVDKSRWQQGNVFSCSVMHEALHNHYTQKSLSLSP
light: not shown
Regarding B8, the “Relative FcgRIIaR-binding Activity” value in test [1] was 89.7 IL6R-G1d/IL6R-L=100. Further, in test [2], the “Relative FcgRIIb-binding Activity” value worked out at 311 IL6R-G1d/IL6R-L=100. Also, the “Amount of C1q-binding when that” value in test [3] amounted to 29.4 G1d=100.

B9: IL6R-P733/IL6R-L (antibody, human IgG1, kappa)
heavy: QVQLQESGPGLVKPSETLSLTCAVSGHSISHDHAWSWVRQPPGEGLEWIGFISYSGITNYNPSLQGRVTISRDNSKNTLYLQMNSLRAEDTAVYYCARSLARTTAMDYWGEGTLVTVSSASTKGPSVFPLAPSSKSTSGGTAALGCLVKDYFPEPVTVSWNSGALTSGVHTFPAVLQSSGLYSLSSVVTVPSSSLGTQTYICNVNHKPSNTKVDKKVEPKSCDKTHTCPPCPAPELFGQDSVMLFPPKPKDTLMISRTPEVTCVVVDVSPEDPEVKFNWYVDGVEVHNAKTKPREEQENSTYRVVSVLTVLHQDWLNGKEYKCKVHNKALPAPIEKTISKAKGQPREPQVYTLPPSRDELTKNQVSLTCLVKGFYPSDIAVEWESNGQPENNYKTTPPVLDSDGSFFLYSKLTVDKSRWQQGNVFSCSVMHEALHNHYTQKSLSLSP
light: not shown
Consider B9, for which the “Relative FcgRIIaR-binding Activity” value in test [1] amounted to 8.1 IL6R-G1d/IL6R-L=100. Moreover, in test [2], the “Relative FcgRIIb-binding Activity” value was found to be 84.8 IL6R-G1d/IL6R-L=100. In test [3], the “Amount of C1q-binding when that” value turned out to be 23 G1d=100.
